Usually pKd stands for −log10 of the Kd, conventionally taken in molar units.

The series concerns the target OsMADS57 (Oryza sativa) (UniProt Q6Z6W2). Briefly: SPR. Particulars: SPR (Biacore 3000, SA chip): 10 mM Hepes pH 7.9, 50 mM KCl, 1 mM EDTA, 0.5 mM DTT, 5 mM MgCl2, 10% glycerol, 0.005% P20, 25 or 4 C, protein 0.15-4.80 uM, EMSA: ….

pKd: −log10 of the molar value.

Chain of OsMADS57 (Oryza sativa) (Q6Z6W2 whole entry): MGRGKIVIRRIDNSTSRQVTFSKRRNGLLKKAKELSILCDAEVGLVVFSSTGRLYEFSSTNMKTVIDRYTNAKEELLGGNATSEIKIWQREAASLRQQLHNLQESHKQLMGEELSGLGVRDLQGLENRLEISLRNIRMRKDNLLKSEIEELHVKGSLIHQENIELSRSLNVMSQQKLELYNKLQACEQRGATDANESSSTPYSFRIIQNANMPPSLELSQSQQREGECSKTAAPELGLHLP

“TTAACTTTAAAAAGTTAGTTAACTTTAAAAAGTTAGTTAACTTTAAAAAGTTAG (double strand) [WRKY94S2]” gave a pKd of 6.15. For the setting “25 C”, the pKd was 5.92.

The values above are taken from article PMC5873253.
